T1: FcγRIIa R (human, UniProt P12318 34-217)
T1 construct: extracellular domain; also called FcgRIIa R type; 2aR
T1 sequence (looked up): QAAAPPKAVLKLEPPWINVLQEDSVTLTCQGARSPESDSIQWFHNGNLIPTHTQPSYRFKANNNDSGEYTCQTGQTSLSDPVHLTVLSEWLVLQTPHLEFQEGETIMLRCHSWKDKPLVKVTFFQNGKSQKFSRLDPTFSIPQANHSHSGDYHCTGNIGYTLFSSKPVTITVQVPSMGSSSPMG


Each binder was assayed against T1, FcγRIIa R (assay: SPR Biacore; vs GpH7-A5/GpH7-B3/GpL16-k0 =100).

Binder | He/Con_2aR
GpH7-A5/GpH7-B3 variant K326_12R/GpL16-k0 (antibody, human IgG1, kappa, also called He Ab K326_12R) heavy 1: not shown heavy 2: not shown light: DIVMTQSPLSLPVTPGEPASISCQASESLVHSNRNTYLHWYLQKPGQSPQLLIYKVSNRFSGVPDRFSGSGSGTDFTLKISRVEAEDVGVYYCSQNTHVPPTFGQGTKVEIERTVAAPSVFIFPPSDEQLKSGTASVVCLLNNFYPREAKVQWKVDNALQSGNSQESVTEQDSKDSTYSLSSTLTLSKADYEKHKVYACEVTHQGLSSPVTKSFNRGEC | 103 % of control
GpH7-A5/GpH7-B3 variant K334_10E/GpL16-k0 (antibody, human IgG1, kappa, also called He Ab K334_10E) heavy 1: not shown heavy 2: not shown light: DIVMTQSPLSLPVTPGEPASISCQASESLVHSNRNTYLHWYLQKPGQSPQLLIYKVSNRFSGVPDRFSGSGSGTDFTLKISRVEAEDVGVYYCSQNTHVPPTFGQGTKVEIERTVAAPSVFIFPPSDEQLKSGTASVVCLLNNFYPREAKVQWKVDNALQSGNSQESVTEQDSKDSTYSLSSTLTLSKADYEKHKVYACEVTHQGLSSPVTKSFNRGEC | 106 % of control
GpH7-A5/GpH7-B3 variant K334_02A/GpL16-k0 (antibody, human IgG1, kappa, also called He Ab K334_02A) heavy 1: not shown heavy 2: not shown light: DIVMTQSPLSLPVTPGEPASISCQASESLVHSNRNTYLHWYLQKPGQSPQLLIYKVSNRFSGVPDRFSGSGSGTDFTLKISRVEAEDVGVYYCSQNTHVPPTFGQGTKVEIERTVAAPSVFIFPPSDEQLKSGTASVVCLLNNFYPREAKVQWKVDNALQSGNSQESVTEQDSKDSTYSLSSTLTLSKADYEKHKVYACEVTHQGLSSPVTKSFNRGEC | 105 % of control
GpH7-A5/GpH7-B3 variant L235_04F/GpL16-k0 (antibody, human IgG1, kappa, also called He Ab L235_04F) heavy 1: not shown heavy 2: not shown light: DIVMTQSPLSLPVTPGEPASISCQASESLVHSNRNTYLHWYLQKPGQSPQLLIYKVSNRFSGVPDRFSGSGSGTDFTLKISRVEAEDVGVYYCSQNTHVPPTFGQGTKVEIERTVAAPSVFIFPPSDEQLKSGTASVVCLLNNFYPREAKVQWKVDNALQSGNSQESVTEQDSKDSTYSLSSTLTLSKADYEKHKVYACEVTHQGLSSPVTKSFNRGEC | 114 % of control
GpH7-A5/GpH7-B3 variant K326_15Y/GpL16-k0 (antibody, human IgG1, kappa, also called He Ab K326_15Y) heavy 1: not shown heavy 2: not shown light: DIVMTQSPLSLPVTPGEPASISCQASESLVHSNRNTYLHWYLQKPGQSPQLLIYKVSNRFSGVPDRFSGSGSGTDFTLKISRVEAEDVGVYYCSQNTHVPPTFGQGTKVEIERTVAAPSVFIFPPSDEQLKSGTASVVCLLNNFYPREAKVQWKVDNALQSGNSQESVTEQDSKDSTYSLSSTLTLSKADYEKHKVYACEVTHQGLSSPVTKSFNRGEC | 136 % of control
GpH7-A5/GpH7-B3 variant K334_20W/GpL16-k0 (antibody, human IgG1, kappa, also called He Ab K334_20W) heavy 1: not shown heavy 2: not shown light: DIVMTQSPLSLPVTPGEPASISCQASESLVHSNRNTYLHWYLQKPGQSPQLLIYKVSNRFSGVPDRFSGSGSGTDFTLKISRVEAEDVGVYYCSQNTHVPPTFGQGTKVEIERTVAAPSVFIFPPSDEQLKSGTASVVCLLNNFYPREAKVQWKVDNALQSGNSQESVTEQDSKDSTYSLSSTLTLSKADYEKHKVYACEVTHQGLSSPVTKSFNRGEC | 105 % of control
GpH7-A5/GpH7-B3 variant L235_09D/GpL16-k0 (antibody, human IgG1, kappa, also called He Ab L235_09D) heavy 1: not shown heavy 2: not shown light: DIVMTQSPLSLPVTPGEPASISCQASESLVHSNRNTYLHWYLQKPGQSPQLLIYKVSNRFSGVPDRFSGSGSGTDFTLKISRVEAEDVGVYYCSQNTHVPPTFGQGTKVEIERTVAAPSVFIFPPSDEQLKSGTASVVCLLNNFYPREAKVQWKVDNALQSGNSQESVTEQDSKDSTYSLSSTLTLSKADYEKHKVYACEVTHQGLSSPVTKSFNRGEC | 101 % of control
GpH7-A5/GpH7-B3 variant K334_05P/GpL16-k0 (antibody, human IgG1, kappa, also called He Ab K334_05P) heavy 1: not shown heavy 2: not shown light: DIVMTQSPLSLPVTPGEPASISCQASESLVHSNRNTYLHWYLQKPGQSPQLLIYKVSNRFSGVPDRFSGSGSGTDFTLKISRVEAEDVGVYYCSQNTHVPPTFGQGTKVEIERTVAAPSVFIFPPSDEQLKSGTASVVCLLNNFYPREAKVQWKVDNALQSGNSQESVTEQDSKDSTYSLSSTLTLSKADYEKHKVYACEVTHQGLSSPVTKSFNRGEC | 103 % of control
GpH7-A5/GpH7-B3 variant K334_13S/GpL16-k0 (antibody, human IgG1, kappa, also called He Ab K334_13S) heavy 1: not shown heavy 2: not shown light: DIVMTQSPLSLPVTPGEPASISCQASESLVHSNRNTYLHWYLQKPGQSPQLLIYKVSNRFSGVPDRFSGSGSGTDFTLKISRVEAEDVGVYYCSQNTHVPPTFGQGTKVEIERTVAAPSVFIFPPSDEQLKSGTASVVCLLNNFYPREAKVQWKVDNALQSGNSQESVTEQDSKDSTYSLSSTLTLSKADYEKHKVYACEVTHQGLSSPVTKSFNRGEC | 109 % of control
GpH7-A5/GpH7-B3 variant L328_02A/GpL16-k0 (antibody, human IgG1, kappa, also called He Ab L328_02A) heavy 1: not shown heavy 2: not shown light: DIVMTQSPLSLPVTPGEPASISCQASESLVHSNRNTYLHWYLQKPGQSPQLLIYKVSNRFSGVPDRFSGSGSGTDFTLKISRVEAEDVGVYYCSQNTHVPPTFGQGTKVEIERTVAAPSVFIFPPSDEQLKSGTASVVCLLNNFYPREAKVQWKVDNALQSGNSQESVTEQDSKDSTYSLSSTLTLSKADYEKHKVYACEVTHQGLSSPVTKSFNRGEC | 117 % of control
GpH7-A5/GpH7-B3 variant K334_08L/GpL16-k0 (antibody, human IgG1, kappa, also called He Ab K334_08L) heavy 1: not shown heavy 2: not shown light: DIVMTQSPLSLPVTPGEPASISCQASESLVHSNRNTYLHWYLQKPGQSPQLLIYKVSNRFSGVPDRFSGSGSGTDFTLKISRVEAEDVGVYYCSQNTHVPPTFGQGTKVEIERTVAAPSVFIFPPSDEQLKSGTASVVCLLNNFYPREAKVQWKVDNALQSGNSQESVTEQDSKDSTYSLSSTLTLSKADYEKHKVYACEVTHQGLSSPVTKSFNRGEC | 106 % of control
GpH7-A5/GpH7-B3 variant K326_18N/GpL16-k0 (antibody, human IgG1, kappa, also called He Ab K326_18N) heavy 1: not shown heavy 2: not shown light: DIVMTQSPLSLPVTPGEPASISCQASESLVHSNRNTYLHWYLQKPGQSPQLLIYKVSNRFSGVPDRFSGSGSGTDFTLKISRVEAEDVGVYYCSQNTHVPPTFGQGTKVEIERTVAAPSVFIFPPSDEQLKSGTASVVCLLNNFYPREAKVQWKVDNALQSGNSQESVTEQDSKDSTYSLSSTLTLSKADYEKHKVYACEVTHQGLSSPVTKSFNRGEC | 115 % of control
GpH7-A5/GpH7-B3 variant L234_20W/GpL16-k0 (antibody, human IgG1, kappa, also called He Ab L234_20W) heavy 1: not shown heavy 2: not shown light: DIVMTQSPLSLPVTPGEPASISCQASESLVHSNRNTYLHWYLQKPGQSPQLLIYKVSNRFSGVPDRFSGSGSGTDFTLKISRVEAEDVGVYYCSQNTHVPPTFGQGTKVEIERTVAAPSVFIFPPSDEQLKSGTASVVCLLNNFYPREAKVQWKVDNALQSGNSQESVTEQDSKDSTYSLSSTLTLSKADYEKHKVYACEVTHQGLSSPVTKSFNRGEC | 108 % of control
GpH7-A5/GpH7-B3 variant K334_19Q/GpL16-k0 (antibody, human IgG1, kappa, also called He Ab K334_19Q) heavy 1: not shown heavy 2: not shown light: DIVMTQSPLSLPVTPGEPASISCQASESLVHSNRNTYLHWYLQKPGQSPQLLIYKVSNRFSGVPDRFSGSGSGTDFTLKISRVEAEDVGVYYCSQNTHVPPTFGQGTKVEIERTVAAPSVFIFPPSDEQLKSGTASVVCLLNNFYPREAKVQWKVDNALQSGNSQESVTEQDSKDSTYSLSSTLTLSKADYEKHKVYACEVTHQGLSSPVTKSFNRGEC | 109 % of control
GpH7-A5/GpH7-B3 variant L234_09D/GpL16-k0 (antibody, human IgG1, kappa, also called He Ab L234_09D) heavy 1: not shown heavy 2: not shown light: DIVMTQSPLSLPVTPGEPASISCQASESLVHSNRNTYLHWYLQKPGQSPQLLIYKVSNRFSGVPDRFSGSGSGTDFTLKISRVEAEDVGVYYCSQNTHVPPTFGQGTKVEIERTVAAPSVFIFPPSDEQLKSGTASVVCLLNNFYPREAKVQWKVDNALQSGNSQESVTEQDSKDSTYSLSSTLTLSKADYEKHKVYACEVTHQGLSSPVTKSFNRGEC | 122 % of control
GpH7-A5/GpH7-B3 variant L234_10E/GpL16-k0 (antibody, human IgG1, kappa, also called He Ab L234_10E) heavy 1: not shown heavy 2: not shown light: DIVMTQSPLSLPVTPGEPASISCQASESLVHSNRNTYLHWYLQKPGQSPQLLIYKVSNRFSGVPDRFSGSGSGTDFTLKISRVEAEDVGVYYCSQNTHVPPTFGQGTKVEIERTVAAPSVFIFPPSDEQLKSGTASVVCLLNNFYPREAKVQWKVDNALQSGNSQESVTEQDSKDSTYSLSSTLTLSKADYEKHKVYACEVTHQGLSSPVTKSFNRGEC | 112 % of control
GpH7-A5/GpH7-B3 variant K334_12R/GpL16-k0 (antibody, human IgG1, kappa, also called He Ab K334_12R) heavy 1: not shown heavy 2: not shown light: DIVMTQSPLSLPVTPGEPASISCQASESLVHSNRNTYLHWYLQKPGQSPQLLIYKVSNRFSGVPDRFSGSGSGTDFTLKISRVEAEDVGVYYCSQNTHVPPTFGQGTKVEIERTVAAPSVFIFPPSDEQLKSGTASVVCLLNNFYPREAKVQWKVDNALQSGNSQESVTEQDSKDSTYSLSSTLTLSKADYEKHKVYACEVTHQGLSSPVTKSFNRGEC | 111 % of control
GpH7-A5/GpH7-B3 variant K334_04F/GpL16-k0 (antibody, human IgG1, kappa, also called He Ab K334_04F) heavy 1: not shown heavy 2: not shown light: DIVMTQSPLSLPVTPGEPASISCQASESLVHSNRNTYLHWYLQKPGQSPQLLIYKVSNRFSGVPDRFSGSGSGTDFTLKISRVEAEDVGVYYCSQNTHVPPTFGQGTKVEIERTVAAPSVFIFPPSDEQLKSGTASVVCLLNNFYPREAKVQWKVDNALQSGNSQESVTEQDSKDSTYSLSSTLTLSKADYEKHKVYACEVTHQGLSSPVTKSFNRGEC | 110 % of control
GpH7-A5/GpH7-B3 variant L235_20W/GpL16-k0 (antibody, human IgG1, kappa, also called He Ab L235_20W) heavy 1: not shown heavy 2: not shown light: DIVMTQSPLSLPVTPGEPASISCQASESLVHSNRNTYLHWYLQKPGQSPQLLIYKVSNRFSGVPDRFSGSGSGTDFTLKISRVEAEDVGVYYCSQNTHVPPTFGQGTKVEIERTVAAPSVFIFPPSDEQLKSGTASVVCLLNNFYPREAKVQWKVDNALQSGNSQESVTEQDSKDSTYSLSSTLTLSKADYEKHKVYACEVTHQGLSSPVTKSFNRGEC | 131 % of control
GpH7-A5/GpH7-B3 variant L234_04F/GpL16-k0 (antibody, human IgG1, kappa, also called He Ab L234_04F) heavy 1: not shown heavy 2: not shown light: DIVMTQSPLSLPVTPGEPASISCQASESLVHSNRNTYLHWYLQKPGQSPQLLIYKVSNRFSGVPDRFSGSGSGTDFTLKISRVEAEDVGVYYCSQNTHVPPTFGQGTKVEIERTVAAPSVFIFPPSDEQLKSGTASVVCLLNNFYPREAKVQWKVDNALQSGNSQESVTEQDSKDSTYSLSSTLTLSKADYEKHKVYACEVTHQGLSSPVTKSFNRGEC | 104 % of control
GpH7-A5/GpH7-B3 variant L235_15Y/GpL16-k0 (antibody, human IgG1, kappa, also called He Ab L235_15Y) heavy 1: not shown heavy 2: not shown light: DIVMTQSPLSLPVTPGEPASISCQASESLVHSNRNTYLHWYLQKPGQSPQLLIYKVSNRFSGVPDRFSGSGSGTDFTLKISRVEAEDVGVYYCSQNTHVPPTFGQGTKVEIERTVAAPSVFIFPPSDEQLKSGTASVVCLLNNFYPREAKVQWKVDNALQSGNSQESVTEQDSKDSTYSLSSTLTLSKADYEKHKVYACEVTHQGLSSPVTKSFNRGEC | 129 % of control
GpH7-A5/GpH7-B3 variant K326_20W/GpL16-k0 (antibody, human IgG1, kappa, also called He Ab K326_20W) heavy 1: not shown heavy 2: not shown light: DIVMTQSPLSLPVTPGEPASISCQASESLVHSNRNTYLHWYLQKPGQSPQLLIYKVSNRFSGVPDRFSGSGSGTDFTLKISRVEAEDVGVYYCSQNTHVPPTFGQGTKVEIERTVAAPSVFIFPPSDEQLKSGTASVVCLLNNFYPREAKVQWKVDNALQSGNSQESVTEQDSKDSTYSLSSTLTLSKADYEKHKVYACEVTHQGLSSPVTKSFNRGEC | 131 % of control

Reference: patent US20180155451A1 (published 2018)
